Assay: soluble on expression in E. coli; label from the status in PepcDB or PDB records

Soluble on expression in E. coli, not soluble:
MGSDKIHHHHHHMSSSQQIAKNARKAGNILKTISNEGRSDILYKIHDALKANAHAIEEANKIDLAVAKETGLADSLLKRLDLFKGDKFEVMLQGIKDVAELEDPVGKVKMARELDDGLTLYQVTAPVGVLLVIFESRPEVIANITALSIKSGNAAILKGGKESVNTFREMAKIVNDTIAQFQSETGVPVGSVQLIETRQDVSDLLDQDEYIDLVVPRGSNALVRKIKDTTKIPVLGHADGICSIYLDEDADLIKAKRISLDAKTNYPAGCNAMETLLINPKFSKWWEVLENLTLEGGVTIHATKDLKTAYFDKLNELGKLTEAIQCKTVDADEEQDFDKEFLSLDLAAKFVTSTESAIQHINTHSSRHTDAIVTENKANAEKFMKGVDSSGVYWNASTRFADGFRYGFGAEVGISTSKIHARGPVGLDGLVSYQYQIRG
MGSDKIHHHHHHMSTEHQLLVGLLKKLKDDALVLPTLPEVAMRVQEVVSRQDSSLKQVADIIGQDAAISARIIKVANSALYSRGNKAESINAAVSRIGLVQIKSITTSVAMEQLFISTNEMVWEVMDEVWKTSIEVTASSCAMLEMYNKRHPTKKLDRDTLTLAGLVHNIGALPVLTEAEVHPELFGRIDDLRSLVRKMQGPIGRAVLKTWDFAPEVMEVVERWADLHYLPEKVTYLDFIRSAAFYTGELRAGEELEERLGVFAQRGLPVTPEDLASDEFINMYHSIMQSYE
MGSDKIHHHHHHMSTLLRQHAEQQFAEELHELKQNETNPVPENWEMSPQSVVTYLMGGKLKNGFEVSPKYIGNRRLMEIAVATLVTDRALLLYGLPGTAKSWVSEHIAAAISGDSTLIVQGTAGTGEEAIRYGWNYARLLAEGPSVGALVQTPVMKAMQEGKIGRIEELTRIGSDVQDTLITILSEKTLPIPELNTEVQAIRGFNIIATANNRDKGVNDLSSALKRRFNTVILPLPDSIDEEIDIVRRRVESFEKVMQLPAEKPALEEIRRVVTIFRELRQGATADGKTKLKTPSGTLSTAEAISVVNNGLAMAGYFGDGEIHAEDLVSGILGAVVKDPVQDKVVWQEYMETVVKNRDGWKDIYRASRDMI
MGSDKIHHHHHHMSTPGSTPPPSVADQPHPLPLANGHPISGATADAAAQWLTLLMSDEMTDSDYQCWQQWRAAHPDHERAWQHIEAVTARFRELPSTAAYKSLSPLTNPVSAGKPGSPGRRKAMGTLLWLGTAGVGSMLVSRTQIWQQTVADYRTGTGEQRAIYLADGTHIMLNTYSAIDVAFDAQHRTIRLITGDILITTHPVHTPISDPRPFIVETAEGRIRALGTRFTVSQRKGRTHVAVLEHAVEVTPAAAPDRQYILPAGQQLSFTRHTLNNATTLDKQTTGWTQGQIIADNIRLGDFITDLGRYRTGLLRCDPAVAELRLSGVFPLDDTDRILETLPSVLPVRVRLRTRYWVIVEAAS
MGSDKIHHHHHHMSTSPLYYAKKTQELCALSDVYITLNRMLSSDGCSLEQLADAIAYEPAIAASILKIANSAMFSMPRKIDSLSKALTILGIKEVKKLVNAYGITAAFSNLDPNVVDMDKFWEISVDCALICQYFAKNKQIPNTDNIFLSGLFHNLGMLAMISSEPAKVRYCEGYDRDETPWFRQNQVFGFTFADCTTELLKLWDLPDSIIQPIAEFNGAEHEPLPDNSKLLYMASRLAVINADPGLYAKEALIDKAILDDLGIESSDMSQSLEYCNEQAMELLATFPIQGRKSSE
MGSDKIHHHHHHMSVLIECRDLSHSYGEKTVLHDLSFTVRQGGVFGLLGKNGAGKSTTINILMGFLRPGSGSCRVLGEPSHALSPHARRRIGLLHEGFIQYDFMTIAELERYYAAFYPLWDRSVFFDLTDRLQVPYSRRISCLSCGQRSQVVLGLIMAQQPQLMILDDYSMGLDVGYRRLFIDFLREYVAKRGTTVLLTSHVVQELDKIVDNMIVLREGRVAVSGSKKEFMDSFRCYSFARSPASDALHADTVLENVEHMGSVTTVYAFADGEPVARHLRDRGVDPQNMTPVPMDFEDAFVGLTGKY
MGSDKIHHHHHHMSYKVINVITAIDYIEEHLSEKLDLDIVANAVHYSKYHLHRTFTTSVGLTMHDYIKRRKLTEAAKLLVFSKKPIIEIALIAGYESQQAFTSIFKAMYKKSPNKYRKEQEFYPLQLRFVLKKDNLFLKNVLELEKEIKLASMSDIPLWMNLVRLVIDGFPNLQEEEYIYQLEQYILEERALILKLNNVAIANMVFNRETRSIDFFGIHPQYRNSDIAQVFLKKVIEDFLIDTDISITTFREGDKADTGHRDMIKKLGFAEAELLVEFGYPTQKFILPLS
MGSDKIHHHHHHMTAEVAIINRSGIALAADSAVTIGRDRVWKNSNKLFHLAPSNDVAVMVFGSGDYCGLPWEVVIKEFRKSLGKTTYSRVEEYVGRFLGFLDDLVVPPTPLADLTGWYIILNAISQTQKAMTASGSLKRRQQLIAAISEKIEEADHYPLLFDGYSRDQYRKKHSQKIKEFMAEELGMHVTQTMHSKMITLCYERSRRAFETKFETGVVFAGYGDSELLPVVIEMCVDGELEGKVRAWQVRENNMNEGGTSGAILPFAQADVANLFVEGTLPQYLSYTRQTLLQTLDLKTAELVKDYVPEPDRVVEMERQKKANRAMVKQFSTDFKQYRHDESVANLLKVVNSLPKEEMAAMAEALVEITSLRRKMDSSLETVGGPVDVAIISKSDGFVWTKRKHYFDVEFNRDFMERRNQRYQGNQDA
MGSDKIHHHHHHMTAYNNNAIYFKNIASGSKGNSTFIWDAHDLIVIDFGITMKKFKEAISELTLGGLNKSIFISHEHADHVSGIRSVKKVDGADVYTRPATAEAANIKAYEIDNEVVIGNFEILAFDVPHDAADPVAFTVKWKDLKISVVSDLGTVTENVISNIRDSDILAFESNHDVSMLKTGRYPASLKRRILSQHGHLSNEQSAEAISKAINESTEIVLTHLSQENNKPEIALNEVKSYLKNRDIKYKDVECADQYVGSSLKSLKT
MGSDKIHHHHHHMTDEHSVFEYKIGLLAPSRVGKSTLIAGLLTEGQQQLAQDSSVHLLTADRPTKNRLAATYNLVSGALKARMFEPGLVPSTSDPSWFRLLLEARGQDLQIRFDILDYPGAWLEGAGEGTEDEQKWNECEAFLADSSVLILPIDSVLLMDSGDDHAHLLASHLSVFQINQAVLRWAKNRRELSGEPAMIVFCPVKCETYLSDSGSLQDHAGTLRGKVVDQFSDVLKTVRDAAPHAAVRYLPIDTFGCVELVSARWIHAQGSPGGEMLVPKYRVRPPGQIVRKGLDDLLTLLCRQLVDTARAQSERTTAAKQTAALNSRNHAELREGFFRDLWLNFNGERNRRRHTAATDERLFAMSQRTTQSLFDVLTALAGRESGPRLHHLS
MGSDKIHHHHHHMTDSDLWIQVSDVRKHYAIGKSGLSDALVSAQSSANTGPGEKIAVDGISLTIRNGERLGIVGRNGAGKSTLLHMVAGLSAPTAGKIDVHGRVTAIMTLGLGLREHASGRENIYIDGEVQGKSRVEIDAVIDEIIEFAELGEFIDMPVRTYSTGMKSRLAFAMISCLEPEILIIDEALSAGDAKFSAKATRKIQEICAKGRIVILVSHSMASIQSMCNRCLWIDQGKIVMDGLPDQVCKAYIDAVRSEDEAKLLERFRDEASTRFSLDGWDVDALYVLQGDTATQRVLLEAGEDALIRTKIQVPTGCEEAQLVMSVTRLDGLVVTQRRIALDKYTEAGVARVQFAMRPLVLGQGVYRLEIAAELGQALVASRSMIFEVFVRQPPTGGVPMLLYPSEATASLLS
MGSDKIHHHHHHMTDTAPAANIATLSELLKLSGSQYRLYDIGRLVSELPKEQFEKVELNQLPYPTPTQGCACIAIAFWQKQSSQPYLWLLKLPLDERGLLNQGARNHFIAIIVEALGADLTQETSKKQEELLSSNPYLFTPAQYKLASLNSKIKVDLKQQPSAYFSPFREYLSHGSDWGNWQGVGVQGITDFIARIKHDNHSELLLNALPHLPDEVLSPVCSALENEQYPVVLIDALVSALENALIIPDNSVKTMQLLRSLAANSDHTHVRKVVGQLLSNQEVSSELLITLSGRCWQALADEKMLMCYFEHLLSNNNLPLFSSIFKDLVTIPLIRPVAFQCIRSEDRSPALAQAIGQLLSQT
MGSDKIHHHHHHMTESSINLLFSIDNRFVEQFKVTLYSLYQNTSNKNLKIYMLQKELLADHKAIERFCYQLGLSYKPIIIGEEDFKDAPVSDRYPETIYYRLLAQDYLPKSLDKILYLDADILCLNDIAPLYQMDMKNYIYAAASHVSDKSITDIVNKLRLNNFEAEGYFNSGVLLMNLEQCRQKIKPQDIMNYISRKGNTLLLPDQDVLNALYGTKTHLIPDEIYNYDARYNIIYFTRSLGEWDLDWVIENTVFLHFCGKDKPWRKDYKGRYAALYKHYQHRVKILEK
MGSDKIHHHHHHMTGKLPKACVIGAGCSGFTTIKRLKDYGIPYDCFEMSDEVGGNWYYKNPNGLSACYESLHIDTSKWRLAFEDFPVPKDWPDFPHHAQLFQYFKDYVDHFGLRPTITFNTKVESAKRTADGLWAVTLSGGETQFYDVLFVCNGHHWDPRVPEYPGEFDGPAFHAHAYCDPFDPVDMRGKNVVVVGMGNSAMDIASELSQRPIAKNLWVSARRGVWVFPKYLNGKPADKTALPAWMPRKLGVALSRSVLKKTIGRMEDYGLPKPDHEPLEAHPSVSGEFLTRAGCGDIKFKPAIKALEGKRVRFTDDSVEDVDAIVFATGYKISFPFFDDPALLPDADHRLPLFKRMMKPEVPNLFYMGLAQPLPTLVNFAEQQAKLAAAYLAGQYALPPPAEMARITAKDEHRHTGHFYDSARHTIQVDFNVYCADLKKEIAKGEARARNAGGKLPVAARAEGQALAAE
MGSDKIHHHHHHMTKLMPKFEQHRTDFAYCQTITKRSSSAFYTAFSQLPLERAWSIYAVYAFCRTADDLVDVDHDIDGLMALRQSLTTFANGHVPDHPMWRALAVVFETYDMNLDVFFDMLTGQEQDATFKQPQTQQALEDYCYYVAGSVGLMILPMLATNPQSLVKPAVELGSAMQLTNILRDVGEDYQRGRIYLPSKLLAHYQLNPTDLHGPIPSANFIRLWEHEAQIAMNKYEAALTMMPQIDPVARPSLLAATLLYRELLLIAREQHYPILSQRVFLTDERKTQVLNQVSTKVHELALKEA
MGSDKIHHHHHHMTKNHKISVDQLQVGTHISLPVSWKDHPFLFSSFKIKDAAQIELIRHLGITEVFFNPEKSDTQPLALDAIQGDSIDLDDMVDASDTDEMMLLKNEMEVKKQDSIDKQQQMRRSINKTEKQFDRSVAMMRSVVSKLGSRPLNAVNDAKELIHNLTDLLLNSDNLVLHLMGDAKPEEGIYHHSLNVSVLCMLLGKGLGWSREEIELIGIGALFHDVGKLKIPSNILNKRTPLSVPEVNFIKQHPLMSINFLKLADNFPAAAEPLIANHHEFLDGSGSPQGLKADKLDNLSQLIAVVNEYDNLCNGNMQTKGKTPFAALSFLYKNYTKKLNKEYVGRMIKTLGIYPPGCIIELSSGQFGLVMSVNLKNILFPRIMVYDPQVPKDQAPIIDLEQEGIKIVRCLPPAALPENIFKYLNPREKVSYGLGSES

From the DeepSol protein solubility set
